Assay results from the supplement of paper PMC11316812.
± gives the standard deviation of the averaged measurements.

What was measured:
hTERT-HMEC = experiment: percentage of EdU-negative (G0-arrested) nuclei per well, 72 h; higher = more G0 arrest; settings: reference: sequence is the full UniProt precursor, the tested protein was the secreted form or ectodomain
MCF7 = experiment: as above; settings: reference: sequence is the full UniProt precursor, the tested protein was the secreted form or ectodomain
[1] = protein concentration 0.0225 µM
[2] = protein concentration 0.0075 µM
[3] = protein concentration 0.0219975 µM
[4] = protein concentration 0.219975 µM
[5] = protein concentration 0.0357143 µM
[6] = protein concentration 0.357143 µM
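Note: secreted proteins added to cultured cells, EdU pulse at the end, nuclei found by Hoechst imaging, EdU status from nuclear versus surrounding ring intensity ratio, PBS as neutral control.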

MAWMLLLILIMVHPGSCALWVSQPPEIRTLEGSSAFLPCSFNASQGRLAIGSVTWFRDEVVPGKEVRNGTPEFRGRLAPLASSRFLHDHQAELHIRDVRGHDASIYVCRVEVLGLGVGTGNGTRLVVEKEHPQLGAGTVLLLRAGFYAVSFLSVAVGSTVYYQGKCLTWKGPRRQLPAVVPAPLPPPCGSSAHLLPPVPGG
percentage of EdU-negative (hTERT-HMEC; [1]): 4.49 ± 0.81% | percentage of EdU-negative (hTERT-HMEC; protein concentration 0.225 µM): 4.92 ± 0.2% | percentage of EdU-negative (MCF7; [1]): 22.75 ± 0.21% | percentage of EdU-negative (MCF7; protein concentration 0.225 µM): 23.2 ± 1.3%

MAWPLCTLLLLLATQAVALAWSPQEEDRIIEGGIYDADLNDERVQRALHFVISEYNKATEDEYYRRLLRVLRAREQIVGGVNYFFDIEVGRTICTKSQPNLDTCAFHEQPELQKKQLCSFQIYEVPWEDRMSLVNSRCQEA
percentage of EdU-negative (hTERT-HMEC; [1]): 4.46 ± 0.44% | percentage of EdU-negative (hTERT-HMEC; protein concentration 0.225 µM): 5.26 ± 0.68% | percentage of EdU-negative (MCF7; [1]): 25.7 ± 2.2% | percentage of EdU-negative (MCF7; protein concentration 0.225 µM): 24 ± 0.52%

MAWSLGSWLGGCLLVSALGMVPPPENVRMNSVNFKNILQWESPAFAKGNLTFTAQYLSYRIFQDKCMNTTLTECDFSSLSKYGDHTLRVRAEFADEHSDWVNITFCPVDDTIIGPPGMQVEVLADSLHMRFLAPKIENEYETWTMKNVYNSWTYNVQYWKNGTDEKFQITPQYDFEVLRNLEPWTTYCVQVRGFLPDRNKAGEWSEPVCEQTTHDETVPSWMVAVILMASVFMVCLALLGCFALLWCVYKKTKYAFSPRNSLPQHLKEFLGHPHHNTLLFFSFPLSDENDVFDKLSVIAEDSESGKQNPGDSCSLGTPPGQGPQS
percentage of EdU-negative (hTERT-HMEC; protein concentration 0.034 µM): 5.95 ± 2.1% | percentage of EdU-negative (hTERT-HMEC; protein concentration 0.34 µM): 7.32 ± 0.51% | percentage of EdU-negative (MCF7; protein concentration 0.034 µM): 24.3 ± 0.92% | percentage of EdU-negative (MCF7; protein concentration 0.34 µM): 26.5 ± 1.1%

MCGPDDRCPARWPGPGRAVKCGKGLAAARPGRVERGGAQRGGAGLELHPLLGGRTWRAARDADGCEALGTVAVPFDDDDKIVGGYTCEENSLPYQVSLNSGSHFCGGSLISEQWVVSAAHCYKTRIQVRLGEHNIKVLEGNEQFINAAKIIRHPKYNRDTLDNDIMLIKLSSPAVINARVSTISLPTTPPAAGTECLISGWGNTLSFGADYPDELKCLDAPVLTQAECKASYPGKITNSMFCVGFLEGGKDSCQRDSGGPVVCNGQLQGVVSWGHGCAWKNRPGVYTKVYNYVDWIKDTIAANS
percentage of EdU-negative (hTERT-HMEC; [1]): 5.21 ± 0.094% | percentage of EdU-negative (hTERT-HMEC; protein concentration 0.225 µM): 7.39 ± 0.7% | percentage of EdU-negative (MCF7; [1]): 25.3 ± 0.83% | percentage of EdU-negative (MCF7; protein concentration 0.225 µM): 26.6 ± 3.7%

MCGSALAFFTAAFVCLQNDRRGPASFLWAAWVFSLVLGLGQGEDNRCASSNAASCARCLALGPECGWCVQEDFISGGSRSERCDIVSNLISKGCSVDSIEYPSVHVIIPTENEINTQVTPGEVSIQLRPGAEANFMLKVHPLKKYPVDLYYLVDVSASMHNNIEKLNSVGNDLSRKMAFFSRDFRLGFGSYVDKTVSPYISIHPERIHNQCSDYNLDCMPPHGYIHVLSLTENITEFEKAVHRQKISGNIDTPEGGFDAMLQAAVCESHIGWRKEAKRLLLVMTDQTSHLALDSKLAGIVVPNDGNCHLKNNVYVKSTTMEHPSLGQLSEKLIDNNINVIFAVQGKQFHWYKDLLPLLPGTIAGEIESKAANLNNLVVEAYQKLISEVKVQVENQVQGIYFNITAICPDGSRKPGMEGCRNVTSNDEVLFNVTVTMKKCDVTGGKNYAIIKPIGFNETAKIHIHRNCSCQCEDNRGPKGKCVDETFLDSKCFQCDENKCHFDEDQFSSESCKSHKDQPVCSGRGVCVCGKCSCHKIKLGKVYGKYCEKDDFSCPYHHGNLCAGHGECEAGRCQCFSGWEGDRCQCPSAAAQHCVNSKGQVCSGRGTCVCGRCECTDPRSIGRFCEHCPTCYTACKENWNCMQCLHPHNLSQAILDQCKTSCALMEQQHYVDQTSECFSSPSYLRIFFIIFIVTFLIGLLKVLIIRQVILQWNSNKIKSSSDYRVSASKKDKLILQSVCTRAVTYRREKPEEIKMDISKLNAHETFRCNF
percentage of EdU-negative (hTERT-HMEC; [2]): 4.94 ± 0.66% | percentage of EdU-negative (hTERT-HMEC; protein concentration 0.075 µM): 6.65 ± 1.7% | percentage of EdU-negative (MCF7; [2]): 28.2 ± 3% | percentage of EdU-negative (MCF7; protein concentration 0.075 µM): 28.3 ± 2.1%

MCHQQLVISWFSLVFLASPLVAIWELKKDVYVVELDWYPDAPGEMVVLTCDTPEEDGITWTLDQSSEVLGSGKTLTIQVKEFGDAGQYTCHKGGEVLSHSLLLLHKKEDGIWSTDILKDQKEPKNKTFLRCEAKNYSGRFTCWWLTTISTDLTFSVKSSRGSSDPQGVTCGAATLSAERVRGDNKEYEYSVECQEDSACPAAEESLPIEVMVDAVHKLKYENYTSSFFIRDIIKPDPPKNLQLKPLKNSRQVEVSWEYPDTWSTPHSYFSLTFCVQVQGKSKREKKDRVFTDKTSATVICRKNASISVRAQDRYYSSSWSEWASVPCS
percentage of EdU-negative (hTERT-HMEC; [3]): 5.23 ± 1.3% | percentage of EdU-negative (hTERT-HMEC; [4]): 7.74 ± 1.1% | percentage of EdU-negative (MCF7; [3]): 27.4 ± 2.1% | percentage of EdU-negative (MCF7; [4]): 27.5 ± 0.78%

MCLSHLENMPLSHSRTQGAQRSSWKLWLFCSIVMLLFLCSFSWLIFIFLQLETAKEPCMAKFGPLPSKWQMASSEPPCVNKVSDWKLEILQNGLYLIYGQVAPNANYNDVAPFEVRLYKNKDMIQTLTNKSKIQNVGGTYELHVGDTIDLIFNSEHQVLKNNTYWGIILLANPQFIS [Q9UNG2]
percentage of EdU-negative (hTERT-HMEC; [5]): 5.8 ± 0.82% | percentage of EdU-negative (hTERT-HMEC; [6]): 7.64 ± 0.14% | percentage of EdU-negative (MCF7; [5]): 24.5 ± 2.7% | percentage of EdU-negative (MCF7; [6]): 27 ± 1.1%
